Reference: PMC13335484

What was measured:
Gh-TDH wild-type [1] = molecular target: T1, Gh-TDH wild-type (Grimontia hollisae, UniProt A0A377HK12 25-189); assay: BLI; 50 mM EDTA; details: protein: recombinant, chain copies: 4, label: 5'-biotin
Gh-TDH wild-type [2] = molecular target: T1, Gh-TDH wild-type; assay: BLI; 50 mM EDTA; BLI: PBS pH 7.4, 50 mM EDTA, 1 mg/mL BSA, 1000 rpm, temperature not stated; crystals: protein:ssDNA 1:1.3, hanging drop, 20 C; details: protein: recombinant; chain copies: 4; label: 5'-biotin

CTCTATAGAGTTTTCTCTATAGAGTTCT (structured_DNA) [stem-loop dsDNA with 4-nt 3'-overhang]
Kd (Gh-TDH wild-type [1]; hairpin, 3' overhang 4 nt): 14.8 µM

AAAAAAAAAAAA (ssDNA) [poly(dA12)]
Kd (Gh-TDH wild-type [2]): ~3.08 µM

TTTTTTTTTTTT (ssDNA) [poly(dT12)]
Kd (Gh-TDH wild-type [1]): ~3.08 µM

CCCCCCCCCCCC (ssDNA) [poly(dC12)]
Kd (Gh-TDH wild-type [1]): ~3.08 µM
